Results: doi:10.1101/2020.06.09.141986

Target: Aldob (aldolase B) (UniProt P05062)
Test: anti-Flag co-IP, immunoblot
Conditions: reference: Akt1 wild type

Row | Substance | binding against the reference (sites S473) | binding against the reference (sites T308)
1 | Akt1 (from UniProt P31749) Akt1-S473A | weaker | –
2 | Akt1 (from UniProt P31749) Akt1-T308A | – | weaker
